Key:
Assay in all cases: pull-down; GST pull-down: purified GST-LC3A/B/C or GST-GABARAP/L1/L2 bait (200–240 µg) on glutathione resin, purified His-FLAG-hEPG5 or mutant (25–30 µg) as prey; 50 mM Tris pH 8.0, 150 mM NaCl, 5% glycerol, 0.01% Tween20, 0.5 mM DTT, 4 °C; anti-FLAG fluorescence western blot
GST-GABARAPL1 (human) = GST-GABARAPL1 (human) (UniProt Q9H0R8)
GST-GABARAP (human) = GST-GABARAP (human) (UniProt O95166)
GST-GABARAPL2 (human) = GST-GABARAPL2 (human) (UniProt P60520)

Measured: fold more hEPG5 precipitated than by the LC3 subfamily

GST-GABARAPL2 (human), sequence (P60520 whole entry): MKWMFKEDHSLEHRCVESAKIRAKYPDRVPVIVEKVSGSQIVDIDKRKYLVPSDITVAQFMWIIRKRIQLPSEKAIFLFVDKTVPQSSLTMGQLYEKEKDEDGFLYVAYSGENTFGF
GST-GABARAP (human), sequence (O95166 whole entry): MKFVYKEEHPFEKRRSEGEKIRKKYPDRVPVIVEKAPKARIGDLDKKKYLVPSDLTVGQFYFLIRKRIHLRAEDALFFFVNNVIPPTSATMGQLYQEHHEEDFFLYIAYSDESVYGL
GST-GABARAPL1 (human), sequence (Q9H0R8 whole entry): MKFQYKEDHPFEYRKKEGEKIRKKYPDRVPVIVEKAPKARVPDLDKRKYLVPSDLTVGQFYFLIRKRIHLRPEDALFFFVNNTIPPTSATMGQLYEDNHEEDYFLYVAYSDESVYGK

His-FLAG-hEPG5 (human EPG5, full length, wild type), Q9HCE0 1-2579
2.5 times: all assays above
